Measurements published in publication PMC5080983 (Nature communications, 2015).
Where a chain is given by its changes, count along the chain named. Each block holds one binder with its values, some of them ahead of it. Where no end group is shown, it is not given here. [ ]: non-standard residue; d: D form. Arg(Me2a) = CN(C)C(=N)NCCC[C@H](N)C(=O)O; Arg(Me2s) = CN=C(NC)NCCC[C@H](N)C(=O)O; fluorescent label = not defined here

Columns and labels:
Assay in all cases: fluorescence polarisation
[1] = target: T1, histone H3 tail peptide (1–18) asymmetrically dimethylated at Arg2 (H3R2me2a) (UniProt P68431 2-19)
T1 peptide (looked up): A[Arg(Me2a)]TKQTARKSTGGKAPRK

[2] = target: T2, histone H3 tail peptide (1–18) symmetrically dimethylated at Arg2 (H3R2me2s) (UniProt P68431 2-19)
T2 peptide (looked up): A[Arg(Me2s)]TKQTARKSTGGKAPRK

GST-PHD1 W335A of KDM5A = target: T3, GST-PHD1 W335A of KDM5A (UniProt P29375 291-347, W335A)
T3 sequence (looked up): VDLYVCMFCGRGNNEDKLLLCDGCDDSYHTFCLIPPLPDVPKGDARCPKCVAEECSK

fold reduction of binding affinity against unmodified H3 [1]: ~5 fold
fold reduction of binding affinity against unmodified H3 [2]: ~5 fold
B1: GST-PHD1_(291–347) of KDM5A (domain or fragment, UniProt P29375 291-347, looked up)
chain: T3 sequence (looked up) with A45W

Kd (GST-PHD1 W335A of KDM5A): > 100 µM
Binder: ARTKQTARKSTGGKAPRK-{fluorescent label} (peptide, UniProt P68431 2-19, looked up, reading uncertain) [histone H3 tail peptide H3_(1–18), unmethylated Lys4 (H3K4me0)]
